Test results: ChEMBL document CHEMBL2074270, “Transport of amphipathic anions by human multidrug resistance protein 3” (Cancer Res, 2000)

How the values were obtained:
Format in all cases: functional, cell membranes
Details in all cases: Membrane vesicle
[1] = substrate: CCCCC/C=C\C/C=C\C=C\C=C\[C@@H](SC[C@@H](NC(=O)CC[C@H](N)C(=O)O)C(=O)NCC(=O)O)[C@@H](O)CCCC(=O)O; assay: (§1) TP_TRANSPORTER: uptake in membrane vesicles from MRP3-expressing HEK293 cells
[2] = substrate: C[C@]12CC[C@@H]3c4ccc(O)cc4CC[C@H]3[C@@H]1CC[C@@H]2O[C@@H]1O[C@H](C(=O)O)[C@@H](O)[C@H](O)[C@H]1O; assay: as §1
[3] = substrate: N[C@@H](CCC(=O)N[C@H](CSc1ccc([N+](=O)[O-])cc1[N+](=O)[O-])C(=O)NCC(=O)O)C(=O)O; assay: as §1
[4] = substrate: CN(Cc1cnc2nc(N)nc(N)c2n1)c1ccc(C(=O)N[C@@H](CCC(=O)O)C(=O)O)cc1; assay: as §1
[5] = substrate: C[C@H](CCC(=O)NCC(=O)O)[C@H]1CC[C@H]2[C@@H]3[C@H](O)C[C@@H]4C[C@H](O)CC[C@]4(C)[C@H]3C[C@H](O)[C@]12C; assay: as §1

B1: Multidrug resistance associated protein (Homo sapiens), Q96QA9 (protein)
chain: MDALCGSGELGSKFWDSNLSVHTENPDLTPCFQNSLLAWVPCIYLWVALPCYLLYLRHHCRGYIILSHLSKLKMVLGVLLWCVSWADLFYSFHGLVHGRAPAPVFFVTPLVVGVTMLLATLLIQYERLQGVQSSGVLIIFWFLCVVCAIVPFRSKILLAKAEGEISDPFRFTTFYIHFALVLSALILACFREKPPFFSAKNVDPNPYPETSAGFLSRLFFWWFTKMAIYGYRHPLEEKDLWSLKEEDRSQMVVQQLLEAWRKQEKQTARHKASAAPGKNASGEDEVLLGARPRPRKPSFLKALLATFGSSFLISACFKLIQDLLSFINPQLLSILIRFISNPMAPSWWGFLVAGLMFLCSMMQSLILQHYYHYIFVTGVKFRTGIMGVIYRKALVITNSVKRASTVGEIVNLMSVDAQRFMDLAPFLNLLWSAPLQIILAIYFLWQNLGPSVLAGVAFMVLLIPLNGAVAVKMRAFQVKQMKLKDSRIKLMSEILNGIKVLKLYAWEPSFLKQVEGIRQGELQLLRTAAYLHTTTTFTWMCSPFLVTLITLWVYVYVDPNNVLDAEKAFVSVSLFNILRLPLNMLPQLISNLTQASVSLKRIQQFLSQEELDPQSVERKTISPGYAITIHSGTFTWAQDLPPTLHSLDIQVPKGALVAVVGPVGCGKSSLVSALLGEMEKLEGKVHMKGSVAYVPQQAWIQNCTLQENVLFGKALNPKRYQQTLEACALLADLEMLPGGDQTEIGEKGINLSGGQRQRVSLARAVYSDADIFLLDDPLSAVDSHVAKHIFDHVIGPEGVLAGKTRVLVTHGISFLPQTDFIIVLADGQVSEMGPYPALLQRNGSFANFLCNYAPDEDQGHLEDSWTALEGAEDKEALLIEDTLSNHTDLTDNDPVTYVVQKQFMRQLSALSSDGEGQGRPVPRRHLGPSEKVQVTEAKADGALTQEEKAAIGTVELSVFWDYAKAVGLCTTLAICLLYVGQSAAAIGANVWLSAWTNDAMADSRQNNTSLRLGVYAALGILQGFLVMLAAMAMAAGGIQAARVLHQALLHNKIRSPQSFFDTTPSGRILNCFSKDIYVVDEVLAPVILMLLNSFFNAISTLVVIMASTPLFTVVILPLAVLYTLVQRFYAATSRQLKRLESVSRSPIYSHFSETVTGASVIRAYNRSRDFEIISDTKVDANQRSCYPYIISNRWLSIGVEFVGNCVVLFAALFAVIGRSSLNPGLVGLSVSYSLQVTFALNWMIRMMSDLESNIVAVERVKEYSKTETEAPWVVEGSRPPEGWPPRGEVEFRNYSVRYRPGLDLVLRDLSLHVHGGEKVGIVGRTGAGKSSMTLCLFRILEAAKGEIRIDGLNVADIGDPILFSGTLRMNLDPFGSYSEEDIWWALELSHLHTFVSSQPAGLDFQCSEGGENLSVGQRQLVCLARALLRKSRILVLDEATAAIDLETDNLIQATIRTQFDTCTVLTIAHRLNTIMDYTRVLVLDKGVVAEFDSPANLIAARGIFYGMARDAGLA
Km [1]: 5.3 µM
Km [2]: 25.6 µM
Km [3]: 5.7 µM
Km [4]: 776 µM
Km [5]: 248 µM
